The values below come from publication PMC6546911 (Nature Communications, 2019).

This experiment concerns the target T1, Fen1, budding yeast, wild-type (budding yeast, UniProt P26793 1-382).
T1 construct: Fen1 (flap endonuclease), budding yeast; source: purified
T1 sequence (looked up): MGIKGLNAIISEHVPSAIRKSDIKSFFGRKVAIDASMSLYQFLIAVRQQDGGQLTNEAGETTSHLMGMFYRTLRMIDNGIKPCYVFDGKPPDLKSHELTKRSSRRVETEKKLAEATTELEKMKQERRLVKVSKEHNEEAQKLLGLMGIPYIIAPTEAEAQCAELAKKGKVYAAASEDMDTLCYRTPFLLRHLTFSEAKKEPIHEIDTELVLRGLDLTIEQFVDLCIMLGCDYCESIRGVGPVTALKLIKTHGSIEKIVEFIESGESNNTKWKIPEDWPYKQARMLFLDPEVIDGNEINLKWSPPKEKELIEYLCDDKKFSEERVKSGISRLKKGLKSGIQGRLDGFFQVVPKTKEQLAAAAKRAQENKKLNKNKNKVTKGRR
Briefly: pull-down; purified wild-type or mutant Fen1 mixed with PCNA; Fen1 affinity-purified on anti-FLAG beads; co-isolated PCNA by immunoblot. As to conditions: both partners purified. A general note: In western blotting, separated proteins are transferred to a membrane and probed.

B1: Yeast PCNA (Pol30p) (natural protein, budding yeast, UniProt P15873 1-258, looked up)
chain: MLEAKFEEASLFKRIIDGFKDCVQLVNFQCKEDGIIAQAVDDSRVLLVSLEIGVEAFQEYRCDHPVTLGMDLTSLSKILRCGNNTDTLTLIADNTPDSIILLFEDTKKDRIAEYSLKLMDIDADFLKIEELQYDSTLSLPSSEFSKIVRDLSQLSDSINIMITKETIKFVADGDIGSGSVIIKPFVDMEHPETSIKLEMDQPVDLTFGAKYLLDIIKGSSLSDRVGIRLSSEAPALFQFDLKSGFLQFFLAPKFNDEE
notes: PCNA (Pol30p), budding yeast; source: E. coli BL21 (DE3), purified
With B1, the binding result is “binds”.
